# Assay results from patent publication US20210106703A1, “RADIOIMMUNOCONJUGATES IN COMBINATION WITH OTHER DRUGS AS TREATMENT AGAINST NHL” (Nordic Nanovector ASA, priority 2017, published 2021).
# B1: Lutetium-177 [^177Lu]-lilotomab satetraxetan (conjugate, chains of the INN, looked up)
# VH: EIQLQQSGPELVKPGASVKVSCKASGYSFTDYNMYWVKQSHGKSLEWIGYIDPYNGDTTYNQKFKGKATLTVDKSSSTAFIHLNSLTSEDSAVYYCARSPYGHYAMDYWGQGTSVTVSS
# VL: DIVMTQSHKLLSTSVGDRVSITCKASQDVSTAVDWYQQKPGQSPKLLINWASTRHTGVPDRFTGSGSGTDYTLTISSMQAEDLALYYCRQHYSTPFTFGSGTKLEIK
# modifications: 177Lu satetraxetan chelator conjugate
# Legend:
# Format in all cases: cell-based, human
# [1] = test system: Ramos cells; assay: Proliferation study with Wee-1/Myt-1 inhibitors and ^177Lu-lilotomab; conditions: inhibitor 1 μM + ^177Lu-lilotomab 6 MBq/mL (RIT) for 18 h, 6 days after start
# Experimental: (§1) Cells were treated for 18 h with 1 μM of the selective Wee-1 kinase inhibitor MK-1775 (Selleckchem, Houston, USA) or of the dual Wee-1/Myt-1 inhibitor PD-166285 (EMD Merck Millipore/Calbiochem, Molsheim, France) alone or in combination with 6 MBq/mL, 2 MBq/mL and 0.5 MB/mL of ^177Lu-lilotomab for Ramos, Rec-1 and DOHH2 cells respectively. At different times after start of incubation, proteins were extracted to measure the CDK1 phosphorylation levels, in parallel, proliferation was determined and at 18 h and 24 h after start of incubation, the percentage of cells in G2/M was assessed (experiments were performed three time except the cell cycle analysis).
# (§2) The activity used for the treatment with ^177Lu-lilotomab was chosen to decrease the proliferation to about 50% for the three cell lines compared with non-treated cells.
# (§3) Inhibition of G2/M cell cycle arrest radiosensitises radioresistant Ramos model. The Bliss independence mathematical model was next used to investigate the role of MK-1775 or PD-166285 on the response to ^177Lu-lilotomab. A theoretical therapeutic efficacy was calculated for the two combinations (MK-1775 or PD-166285) in the three cell lines. And the comparison between the experimental and the theoretical curves was done.
# (§4) Theoretical efficacyRIT+inhib=EfficacyRIT+Efficacyinhib−(EfficacyRIT×Efficacyinhib)
# [2] = test system: Rec-1 cells; assay: as above; conditions: Rec-1, inhibitor 1 μM + ^177Lu-lilotomab 2 MBq/mL for 18 h, versus either alone
# Experimental: as §1, §2, §3, §4
# [3] = test system: Ramos cells; assay: Apoptosis induction (Annexin V/7-AAD, Muse flow cytometer); conditions: 6 MBq/mL radiolabelled mAb for 18 h, peak time 72 h
# Experimental: (§5) Cells were harvested at 0, 2 h, 18 h, 1 d, 2 d, 3 d of RIT. At each time point, apoptosis was detected with […] from Merck Millipore (Annexin V Kit with 7-AAD) in the dark for 30 min at room temperature before analysis using Muse® flow cytometer
# [4] = test system: Rec-1 cells; assay: as above; conditions: Rec-1, 6 MBq/mL radiolabelled mAb for 18 h, peak time 72 h
# Experimental: as §5
# [5] = test system: CDK1 and its phosphorylations, p345-Chk1, Wee-1, Myt-1, CDK7 in DOHH2 cells; assay: Protein expression by Western blot
# Experimental: (§6) Protein expression was assessed in 1×10^6 Ramos, DOHH2 or Rec-1 cells/mL grown in 12-well plates and exposed for 18 h to 0 and 6 MBq/mL of ^177Lu-lilotomab. Cells were harvested at 0, 2 h, 18 h, 1 d, 2 d and 3 d of RIT. At each time point, cells were rinsed and incubated in RIPA buffer (Santa Cruz) at 4° C. for 30 minutes. Cells were centrifuged and supernatant (containing proteins) were collected. Proteins were electrophoresed through SDS-PAGE using 12% poly-acrylamide gels and electrotransferred onto nitrocellulose membranes. Blots were incubated with anti-CDK1, anti-p-CDK1(Tyr15) (clone 10A11), anti-p-CDK1(Thr14), anti-p-CDK1(Thr161), anti-CDK7, anti-Wee-1 (clone D10D2), anti-Myt-1, anti-p-CHK1 (Ser345) and anti-human GAPDH (1/1000, Cell Signaling Technologies, Leiden, The Netherlands) primary antibodies. Blot were washed and incubated with horseradish peroxidase-conjugated anti-mouse Ig (115-036-072, Jackson ImmunoResearch) or with horseradish peroxidase-conjugated anti-rabbit Ig (7074, Cell Signaling). Signal detection of immunoblots was carried out using the enhanced chemiluminescence protocol according to the manufacturer's instructions (Clarity™ Western ECL blotting substrates, 1705061, BioRad). PXi analyser (Ozyme) was used to measure levels of protein expression.
# [6] = test system: CDK1 and its phosphorylations, p345-Chk1, Wee-1, Myt-1, CDK7 in Ramos cells; assay: Protein expression by Western blot
# Experimental: as §6
# [7] = test system: CDK1 and its phosphorylations, p345-Chk1, Wee-1, Myt-1, CDK7 in Rec-1 cells; assay: Protein expression by Western blot
# Experimental: as §6
# [8] = test system: CD133 and CD44 at the DOHH2 cell surface; assay: Expression of stem cell markers after RIT (flow cytometry); conditions: DOHH2, 6 MBq/mL for 18 h, up to 9 days post-RIT
# Experimental: Cells were harvested at 0, 2 h, 18 h and each day from 1 d to 10 d of RIT. At each time point, cells were fixed with PFA 4% for 10 minutes, washed twice with PBS and sterilely stored in PBS at 4° C. Stem cell markers were detected with anti-CD133-FITC (clone: AC133, Milteniy) and anti-CD44-APC (clone: IM7, Merck Millipore). 0.5×10^6 cells were saturated for 1 h in PBS-BSA 0.5%. Next cells were centrifuged and incubated with anti-CD133-FITC (2 μL) and anti-CD44-APC (0.125 μg) for 1 h at room temperature in the dark. Finally, cells were rinsed twice and analysed using Gallios® flow cytometer (Beckman Coulter).
# For a preliminary study, investigation of the expression of CD133 and CD44 at the surface of cells treated for 18 h with 6 MBq/mL ^177Lu-lilotomab and ^177Lu-rituximab was done.
molecule,measurement,setting,value
C=CCn1c(=O)c2cnc(Nc3ccc(N4CCN(C)CC4)cc3)nc2n1-c1cccc(C(C)(C)O)n1 [MK-1775],Proliferation (treated/untreated cells),[1],~10%
same,Proliferation (treated/untreated cells),[2],statistically reduced the proliferation
B1,Apoptosis level,[3],33±8%
same,Apoptosis level,[4],67±18%
same,Expression of Wee-1,[5]; DOHH2,became undetectable at 24 h post-treatment
same,Activating pThr161 CDK1 phosphorylation,"[5]; DOHH2, 6 MBq/mL for 18 h",persistent increase
same,CDK1 level,"[5]; DOHH2, 6 MBq/mL for 18 h",decreased in DOHH2 at 48 h and 72 h
same,Inhibitory pTyr15 and pThr14 CDK1 phosphorylations,"[5]; DOHH2, 6 MBq/mL for 18 h",dropped respectively at 24 h and 48 h
same,Expression of Myt-1,"[5]; DOHH2, 18 h after treatment",decreased
same,Level of phosphorylated CHK1 (Ser345),"[5]; DOHH2, at 18-24 h",increased
same,Levels of CDK7,"[5]; DOHH2, compared with Ramos cells",stable or increased
same,Activating pThr161 CDK1 phosphorylation,[6]; 6 MBq/mL for 18 h,transient low levels
same,CDK1 level,[6]; 6 MBq/mL for 18 h,quite stable
same,Inhibitory pTyr15 and pThr14 CDK1 phosphorylations,[6]; 6 MBq/mL for 18 h,high persistent levels
same,Expression of Myt-1,[6]; 18 h after treatment,decreased
same,Level of phosphorylated CHK1 (Ser345),[6]; at 18-24 h,increased
same,Expression of Wee-1,[6]; between 18 and 48 h,comparable in control and treated
same,Level of phosphorylated CHK1 (Ser345),[7]; Rec-1,remained stable until 18 h before progressively decreasing
same,Activating pThr161 CDK1 phosphorylation,"[7]; Rec-1, 6 MBq/mL for 18 h",undetectable
same,CDK1 level,"[7]; Rec-1, 6 MBq/mL for 18 h",quite stable
same,Expression of Myt-1,"[7]; Rec-1, 18 h after treatment",decreased
same,Expression of Wee-1,"[7]; Rec-1, between 18 and 48 h",comparable in control and treated
same,Levels of CDK7,"[7]; Rec-1, compared with Ramos cells",stable or increased
same,Proportion of cells expressing CD44 and CD133,[8],strongly increased
